Legend:
[1] = target: CEBPB B-ZIP domain;ATF4 B-ZIP domain (mouse;mouse, UniProt P28033;Q06507 222-285;276-339, |); experiment: EMSA
[2] = target: CEBPB B-ZIP domain (mouse, UniProt P28033 222-285); experiment: EMSA
Chain of CEBPB B-ZIP domain (P28033 222-285): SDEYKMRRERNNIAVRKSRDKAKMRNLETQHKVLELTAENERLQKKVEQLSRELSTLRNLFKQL

Chain of CEBPB B-ZIP domain;ATF4 B-ZIP domain (P28033 222-285, chain 1 of 2): as the sequence (P28033 222-285) above
Chain of CEBPB B-ZIP domain;ATF4 B-ZIP domain (Q06507 276-339, chain 2 of 2): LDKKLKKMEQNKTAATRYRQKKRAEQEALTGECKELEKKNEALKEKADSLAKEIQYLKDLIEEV

Binder	binding signal [1]	apparent K (half saturation) [2] [nM]
Hetero (CGAT|GCAA) unmethylated (dsDNA) DNA 1: GTCAGTCAGACGATGCAATATAGGTCAG DNA 2: CTGACCTATATTGCATCGTCTGACTGAC	10 fold weaker than methylated N2	
10-mer-A (M) (dsDNA, 5mC at position 14 of each strand) DNA 1: GTCAGTCAGATTGCGCAATATAGGTCAG DNA 2: CTGACCTATATTGCGCAATCTGACTGAC		~5

Reference: article PMC3668366
